This is an account of results in paper PMC6954422.

The target of experiment [1] is MITF(wt) protein fragment 217–296 (Mus musculus). Description: SEC.
The target in experiment [2] is stammer-less MITF(Δ) protein fragment 217–296 (Mus musculus). The experiment can be described thus: SEC.

“MITF(wt) protein fragment 217–296 (domain or fragment)” displayed a stoichiometry N in experiment [1] of 2.
“stammer-less MITF(Δ) protein fragment 217–296 (domain or fragment)”: the stoichiometry N in experiment [2] was 2.
